According to article PMC5231900 (Molecular Biology of the Cell, 2017):

Legend:
Experiment in all cases: pull-down
[1] = molecular target: wild-type HOPS complex purified via Vps39-TAP (yeast, UniProt Q07468;P38959;P20795;P12868;Q03308;P27801)
[2] = molecular target: wild-type HOPS complex purified via Vps41-TAP (yeast, UniProt P38959;Q07468;P20795;P12868;Q03308;P27801)
[3] = molecular target: wild-type Vps39-Vps11 complex (yeast, UniProt Q07468;P12868)
[4] = molecular target: Vps41-Vps3-class C hybrid complex (yeast, UniProt P38959;P23643;P20795;P12868;Q03308;P27801)

Measured: binding result

Sequence of wild-type Vps39-Vps11 complex (Q07468 whole entry, chain 1 of 2): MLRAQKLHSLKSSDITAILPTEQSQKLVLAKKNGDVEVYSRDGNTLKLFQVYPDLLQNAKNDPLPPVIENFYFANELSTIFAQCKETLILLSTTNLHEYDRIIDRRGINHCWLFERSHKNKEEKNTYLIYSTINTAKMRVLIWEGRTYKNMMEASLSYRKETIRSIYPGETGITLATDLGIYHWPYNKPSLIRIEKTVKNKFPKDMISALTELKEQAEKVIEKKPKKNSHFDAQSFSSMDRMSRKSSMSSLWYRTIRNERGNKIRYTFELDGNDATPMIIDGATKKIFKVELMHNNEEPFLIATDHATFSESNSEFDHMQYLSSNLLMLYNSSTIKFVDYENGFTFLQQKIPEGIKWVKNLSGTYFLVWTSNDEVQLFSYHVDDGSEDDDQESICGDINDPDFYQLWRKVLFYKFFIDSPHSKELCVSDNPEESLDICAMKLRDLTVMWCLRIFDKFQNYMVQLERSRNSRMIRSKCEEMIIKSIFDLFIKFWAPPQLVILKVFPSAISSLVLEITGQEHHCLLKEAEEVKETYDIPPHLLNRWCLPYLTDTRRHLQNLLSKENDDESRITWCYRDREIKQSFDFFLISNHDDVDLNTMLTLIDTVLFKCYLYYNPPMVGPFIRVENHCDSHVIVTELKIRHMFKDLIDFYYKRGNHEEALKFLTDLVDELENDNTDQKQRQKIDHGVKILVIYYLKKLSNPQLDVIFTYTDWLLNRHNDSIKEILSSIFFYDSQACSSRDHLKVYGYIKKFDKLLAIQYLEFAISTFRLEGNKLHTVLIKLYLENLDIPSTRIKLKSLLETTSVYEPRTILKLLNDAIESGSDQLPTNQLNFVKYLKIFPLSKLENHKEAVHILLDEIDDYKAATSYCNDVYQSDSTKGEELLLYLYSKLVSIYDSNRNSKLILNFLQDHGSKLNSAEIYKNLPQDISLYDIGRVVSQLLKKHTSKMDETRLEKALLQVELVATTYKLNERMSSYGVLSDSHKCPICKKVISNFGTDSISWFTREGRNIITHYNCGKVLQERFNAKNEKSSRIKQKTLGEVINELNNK
Sequence of wild-type Vps39-Vps11 complex (P12868 whole entry, chain 2 of 2): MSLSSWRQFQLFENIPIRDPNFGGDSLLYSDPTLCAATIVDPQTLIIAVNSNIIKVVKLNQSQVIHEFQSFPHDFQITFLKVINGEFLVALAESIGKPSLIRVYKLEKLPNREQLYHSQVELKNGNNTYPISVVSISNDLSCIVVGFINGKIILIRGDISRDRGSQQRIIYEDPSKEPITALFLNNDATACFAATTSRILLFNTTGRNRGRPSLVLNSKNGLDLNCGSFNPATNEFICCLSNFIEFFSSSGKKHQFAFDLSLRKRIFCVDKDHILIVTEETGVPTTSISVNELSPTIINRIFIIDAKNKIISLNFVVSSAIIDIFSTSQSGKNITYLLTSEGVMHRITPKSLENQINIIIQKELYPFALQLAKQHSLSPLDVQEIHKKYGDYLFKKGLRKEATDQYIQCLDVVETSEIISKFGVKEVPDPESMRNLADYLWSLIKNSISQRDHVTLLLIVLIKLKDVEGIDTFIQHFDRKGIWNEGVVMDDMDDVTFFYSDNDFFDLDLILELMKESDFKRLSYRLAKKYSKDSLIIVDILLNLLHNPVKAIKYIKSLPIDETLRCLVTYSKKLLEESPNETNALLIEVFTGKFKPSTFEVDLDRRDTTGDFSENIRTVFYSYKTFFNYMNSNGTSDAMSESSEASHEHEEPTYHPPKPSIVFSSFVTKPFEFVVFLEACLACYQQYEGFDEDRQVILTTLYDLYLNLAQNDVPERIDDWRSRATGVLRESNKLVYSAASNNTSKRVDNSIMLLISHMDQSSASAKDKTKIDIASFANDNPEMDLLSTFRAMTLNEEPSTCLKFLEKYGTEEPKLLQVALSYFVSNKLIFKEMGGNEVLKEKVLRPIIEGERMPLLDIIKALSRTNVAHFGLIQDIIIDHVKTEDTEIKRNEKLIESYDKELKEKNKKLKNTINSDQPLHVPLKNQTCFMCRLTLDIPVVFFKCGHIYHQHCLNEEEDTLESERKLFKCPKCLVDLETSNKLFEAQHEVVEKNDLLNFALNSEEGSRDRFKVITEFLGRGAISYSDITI

B1: GST-Ypt7 (natural protein)
chain: MSSRKKNILKVIILGDSGVGKTSLMHRYVNDKYSQQYKATIGADFLTKEVTVDGDKVATMQVWDTAGQERFQSLGVAFYRGADCCVLVYDVTNASSFENIKSWRDEFLVHANVNSPETFPFVILGNKIDAEESKKIVSEKSAQELAKSLGDIPLFLTSAKNAINVDTAFEEIARSALQQNQADTEAFEDDYNDAINIRLDGENNSCSC
binds: all assays above
